T1: Human Notch4-NRR domain Fc fusion protein (human, UniProt Q99466 1046-1445, limits assumed)
T1 construct: Expressed in a CHO cell line, used from culture supernatant; 1 is named; also called Human Notch4-NRR Fusion Protein; not shown: Fc
T1 sequence: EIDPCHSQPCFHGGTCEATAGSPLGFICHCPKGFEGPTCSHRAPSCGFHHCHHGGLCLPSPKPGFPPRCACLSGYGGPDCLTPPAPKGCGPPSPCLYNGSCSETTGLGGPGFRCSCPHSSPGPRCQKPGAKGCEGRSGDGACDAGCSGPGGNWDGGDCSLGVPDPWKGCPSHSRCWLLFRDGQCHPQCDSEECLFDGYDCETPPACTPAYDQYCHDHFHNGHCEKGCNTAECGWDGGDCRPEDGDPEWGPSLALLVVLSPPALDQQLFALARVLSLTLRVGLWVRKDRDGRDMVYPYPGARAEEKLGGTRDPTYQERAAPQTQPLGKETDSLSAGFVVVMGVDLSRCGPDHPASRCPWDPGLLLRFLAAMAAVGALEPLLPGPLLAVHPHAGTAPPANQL


Key:
[1] = target: T1, Human Notch4-NRR domain Fc fusion …; test: SPR (Biacore) as for Table 30; Notch4-NRR-Fc captured, antibody injected; averaged, N=5
Experimental: (§1) Kinetic analysis of further anti-Notch4 inhibitory humanized antibodies was carried out as follows. Human Notch4-NRR domain Fc fusion proteins were expressed with a CHO cell line. The antigen in the culture supernatant was captured by the anti-human Notch4 antibody fixed on a CM5 sensor chip that recognizes different epitopes of human Notch4. The humanized anti-human Notch4 antibody was then injected onto the sensor chip at various concentrations. The interaction and disassociation constants thereof were calculated according to manufacturer's instructions.

[2] = target: T1, Human Notch4-NRR domain Fc fusion …; test: SPR (Biacore); Notch4-NRR-Fc captured by another anti-Notch4 antibody on CM5, antibody injected
Experimental: as §1

[3] = target: Notch4 with a part of the intracellular domain substituted with GAL4 DNA binding domain, on b.end3 reporter …; test: cell-based or functional assay
[4] = target: T1, Human Notch4-NRR domain Fc fusion …; test: SPR (Biacore) as for Table 30; Notch4-NRR-Fc captured, antibody injected; averaged, N=2
Experimental: as §1

[5] = target: T1, Human Notch4-NRR domain Fc fusion …; test: SPR (Biacore) as for Table 30; Notch4-NRR-Fc captured, antibody injected; averaged, N=3
Experimental: as §1

[6] = target: T1, Human Notch4-NRR domain Fc fusion …; test: SPR (Biacore) as for Table 30; Notch4-NRR-Fc captured, antibody injected; averaged, N=1
Experimental: as §1

| Binder | Kd [1] | koff [1] | kon [1] | Kd [2] | koff [2] | kon [2] | % of Control (relative luminescence), Notch4-GAL4 luciferase reporter assay, antibody at 10 µg/ml [3] | Kd [6] | koff [6] | kon [6] | also measured |
| --- | --- | --- | --- | --- | --- | --- | --- | --- | --- | --- | --- |
| Antibody C (antibody, human IgG2, kappa, Humanized IgG2 (V234A, G237A)/κ; also called HK2L4 (Lys-); HK2L4(Lys-)) heavy: EVQLVESGGGLVQPGGSLRLSCAASGFTFSSYGMSWVRQAPGKGLELVSTINSNGGRTYYPDSVKGRFTISRDNSKNTLYLQMGSLRAEDMAVYYCARDQGFAYWGQGTLVTVSSASTKGPSVFPLAPCSRSTSESTAALGCLVKDYFPEPVTVSWNSGALTSGVHTFPAVLQSSGLYSLSSVVTVPSSNFGTQTYTCNVDHKPSNTKVDKTVERKCCVECPPCPAPPAAAPSVFLFPPKPKDTLMISRTPEVTCVVVDVSHEDPEVQFNWYVDGVEVHNAKTKPREEQFNSTFRVVSVLTVVHQDWLNGKEYKCKVSNKGLPAPIEKTISKTKGQPREPQVYTLPPSREEMTKNQVSLTCLVKGFYPSDIAVEWESNGQPENNYKTTPPMLDSDGSFFLYSKLTVDKSRWQQGNVFSCSVMHEALHNHYTQKSLSLSPG light: not shown | 715 pM | 0.00127 s⁻¹ | 1.81e+06 M⁻¹ s⁻¹ | 556 pM | 0.00106 s⁻¹ | 1.91e+06 M⁻¹ s⁻¹ | -9.9 % of Control | – | – | – | – |
| Antibody A (antibody, human IgG2, kappa, Humanized IgG2 (V234A, G237A)/κ; also called HK2L3 (Lys-); HK2L3(Lys-)) heavy: EVQLVESGGGLVQPGGSLRLSCAASGFTFSSYGMSWVRQAPGKGLELVSTINSNGGRTYYPDSVKGRFTISRDNSKNTLYLQMGSLRAEDMAVYYCARDQGFAYWGQGTLVTVSSASTKGPSVFPLAPCSRSTSESTAALGCLVKDYFPEPVTVSWNSGALTSGVHTFPAVLQSSGLYSLSSVVTVPSSNFGTQTYTCNVDHKPSNTKVDKTVERKCCVECPPCPAPPAAAPSVFLFPPKPKDTLMISRTPEVTCVVVDVSHEDPEVQFNWYVDGVEVHNAKTKPREEQFNSTFRVVSVLTVVHQDWLNGKEYKCKVSNKGLPAPIEKTISKTKGQPREPQVYTLPPSREEMTKNQVSLTCLVKGFYPSDIAVEWESNGQPENNYKTTPPMLDSDGSFFLYSKLTVDKSRWQQGNVFSCSVMHEALHNHYTQKSLSLSPG light: not shown | – | – | – | 555 pM | 0.000889 s⁻¹ | 1.62e+06 M⁻¹ s⁻¹ | 0.1 % of Control | – | – | – | Kd [4]: 395 pM; koff [4]: 0.00124 s⁻¹; kon [4]: 5.05e+06 M⁻¹ s⁻¹ |
| Antibody E (antibody, human IgG2, kappa, V domains shown, Humanized IgG2 (V234A, G237A)/κ; also called HK2L6 (Lys-); HK2L6(Lys-)) VH: EVQLVESGGGLVQPGGSLRLSCAASGFTFSSYGMSWVRQAPGKGLELVSTINSNGGRTYYPDSVKGRFTISRDNSKNTLYLQMGSLRAEDMAVYYCARDQGFAYWGQGTLVTVSS VL: EIVMTQSPATLSVSPGERATLSCKASQDVGTAVAWYQQKPGQSPRLLIYWASTRHTGIPARFSGSGSGTEFTLTISSLQSEDFAVYFCQQYSSYPWTFGQGTKVEIKR | – | – | – | 519 pM | 0.00115 s⁻¹ | 2.23e+06 M⁻¹ s⁻¹ | 5 % of Control | – | – | – | Kd [5]: 620 pM; koff [5]: 0.00115 s⁻¹; kon [5]: 1.87e+06 M⁻¹ s⁻¹ |
| Antibody F (antibody, human IgG2, kappa, Humanized IgG2 (V234A, G237A)/κ; also called HA2L3 (Lys-); HA2L3(Lys-)) heavy: EVQLVESGGGLVQPGGSLRLSCAASGFTFSSYGMSWVRQAPGKGLELVSTINSNGGRTYYANSVKGRFTISRDNSKNTLYLQMGSLRAEDMAVYYCARDQGFAYWGQGTLVTVSSASTKGPSVFPLAPCSRSTSESTAALGCLVKDYFPEPVTVSWNSGALTSGVHTFPAVLQSSGLYSLSSVVTVPSSNFGTQTYTCNVDHKPSNTKVDKTVERKCCVECPPCPAPPAAAPSVFLFPPKPKDTLMISRTPEVTCVVVDVSHEDPEVQFNWYVDGVEVHNAKTKPREEQFNSTFRVVSVLTVVHQDWLNGKEYKCKVSNKGLPAPIEKTISKTKGQPREPQVYTLPPSREEMTKNQVSLTCLVKGFYPSDIAVEWESNGQPENNYKTTPPMLDSDGSFFLYSKLTVDKSRWQQGNVFSCSVMHEALHNHYTQKSLSLSPG light: not shown | – | – | – | 982 pM | 0.00136 s⁻¹ | 1.55e+06 M⁻¹ s⁻¹ | 17 % of Control | – | – | – | Kd [4]: 434 pM; koff [4]: 0.000894 s⁻¹; kon [4]: 3.5e+06 M⁻¹ s⁻¹ |
| Antibody G (antibody, human IgG2, kappa, Humanized IgG2 (V234A, G237A)/κ; also called HK3L4 (Lys-); HK3L4(Lys-)) heavy: EVQLVESGGGLVQPGGSLRLSCAASGFTFSSYGMSWVRQAPGKGLELVATINSNGGRTYYPDSVKGRFTISRDNSKNTLYLQMGSLKAEDMAVYYCARDQGFAYWGQGTLVTVSSASTKGPSVFPLAPCSRSTSESTAALGCLVKDYFPEPVTVSWNSGALTSGVHTFPAVLQSSGLYSLSSVVTVPSSNFGTQTYTCNVDHKPSNTKVDKTVERKCCVECPPCPAPPAAAPSVFLFPPKPKDTLMISRTPEVTCVVVDVSHEDPEVQFNWYVDGVEVHNAKTKPREEQFNSTFRVVSVLTVVHQDWLNGKEYKCKVSNKGLPAPIEKTISKTKGQPREPQVYTLPPSREEMTKNQVSLTCLVKGFYPSDIAVEWESNGQPENNYKTTPPMLDSDGSFFLYSKLTVDKSRWQQGNVFSCSVMHEALHNHYTQKSLSLSPG light: not shown | 760 pM | 0.00124 s⁻¹ | 1.86e+06 M⁻¹ s⁻¹ | 633 pM | 0.00111 s⁻¹ | 1.78e+06 M⁻¹ s⁻¹ | 13 % of Control | – | – | – | – |
| HA2L4(Lys-) (antibody, human IgG2, kappa, Humanized IgG2 (V234A, G237A)/κ; also called No. 32) heavy: EVQLVESGGGLVQPGGSLRLSCAASGFTFSSYGMSWVRQAPGKGLELVSTINSNGGRTYYANSVKGRFTISRDNSKNTLYLQMGSLRAEDMAVYYCARDQGFAYWGQGTLVTVSSASTKGPSVFPLAPCSRSTSESTAALGCLVKDYFPEPVTVSWNSGALTSGVHTFPAVLQSSGLYSLSSVVTVPSSNFGTQTYTCNVDHKPSNTKVDKTVERKCCVECPPCPAPPAAAPSVFLFPPKPKDTLMISRTPEVTCVVVDVSHEDPEVQFNWYVDGVEVHNAKTKPREEQFNSTFRVVSVLTVVHQDWLNGKEYKCKVSNKGLPAPIEKTISKTKGQPREPQVYTLPPSREEMTKNQVSLTCLVKGFYPSDIAVEWESNGQPENNYKTTPPMLDSDGSFFLYSKLTVDKSRWQQGNVFSCSVMHEALHNHYTQKSLSLSPG light: not shown | 830 pM | 0.00162 s⁻¹ | 2.43e+06 M⁻¹ s⁻¹ | – | – | – | – | – | – | – | – |
| HK2L5(Lys-) (antibody, human IgG2, kappa, Humanized IgG2 (V234A, G237A)/κ; also called No. 36) heavy: EVQLVESGGGLVQPGGSLRLSCAASGFTFSSYGMSWVRQAPGKGLELVSTINSNGGRTYYPDSVKGRFTISRDNSKNTLYLQMGSLRAEDMAVYYCARDQGFAYWGQGTLVTVSSASTKGPSVFPLAPCSRSTSESTAALGCLVKDYFPEPVTVSWNSGALTSGVHTFPAVLQSSGLYSLSSVVTVPSSNFGTQTYTCNVDHKPSNTKVDKTVERKCCVECPPCPAPPAAAPSVFLFPPKPKDTLMISRTPEVTCVVVDVSHEDPEVQFNWYVDGVEVHNAKTKPREEQFNSTFRVVSVLTVVHQDWLNGKEYKCKVSNKGLPAPIEKTISKTKGQPREPQVYTLPPSREEMTKNQVSLTCLVKGFYPSDIAVEWESNGQPENNYKTTPPMLDSDGSFFLYSKLTVDKSRWQQGNVFSCSVMHEALHNHYTQKSLSLSPG light: DIQMTQSPSSLSASVGDRVTITCKASQDVGTAVAWYQQKPGKSPKLLIYWASTRHTGVPSRFSGSGSGTDFTLTISSLQPEDVATYFCQQYSSYPWTFGQGTKVEIKRTVAAPSVFIFPPSDEQLKSGTASVVCLLNNFYPREAKVQWKVDNALQSGNSQESVTEQDSKDSTYSLSSTLTLSKADYEKHKVYACEVTHQGLSSPVTKSFNRGEC | 617 pM | 0.00113 s⁻¹ | 1.93e+06 M⁻¹ s⁻¹ | – | – | – | – | – | – | – | – |
| HA1L3 (antibody, human IgG2, kappa, V domains shown, Humanized IgG2 (V234A, G237A)/κ; also called No. 23) VH: EVQLVESGGGLVQPGGSLRLSCAASGFTFSSYGMSWVRQAPGKGLEYVSTINSNGGRTYYANSVKGRFTISRDNSKNTLYLQMGSLRAEDMAVYYCARDQGFAYWGQGTLVTVSS VL: EIVMTQSPATLSVSPGERATLSCKASQDVGTAVAWYQQKPGQAPRLLIYWASTRHTGIPARFSGSGSGTEFTLTISSLQSEDFAVYYCQQYSSYPWTFGQGTKVEIKR | – | – | – | – | – | – | – | 14700 pM | 0.524 s⁻¹ | 3.57e+07 M⁻¹ s⁻¹ | – |
| HA1L4 (antibody, human IgG2, kappa, V domains shown, Humanized IgG2 (V234A, G237A)/κ; also called No. 24) VH: EVQLVESGGGLVQPGGSLRLSCAASGFTFSSYGMSWVRQAPGKGLEYVSTINSNGGRTYYANSVKGRFTISRDNSKNTLYLQMGSLRAEDMAVYYCARDQGFAYWGQGTLVTVSS VL: EIVMTQSPATLSVSPGERATLSCKASQDVGTAVAWYQQKPGQAPRLLIYWASTRHTGIPARFSGSGSGTEFTLTISSLQSEDFAVYFCQQYSSYPWTFGQGTKVEIKR | – | – | – | – | – | – | – | 9540 pM | 0.113 s⁻¹ | 1.18e+07 M⁻¹ s⁻¹ | – |
| HA1L1 (antibody, human IgG2, kappa, V domains shown, Humanized IgG2 (V234A, G237A)/κ; also called No. 21) VH: EVQLVESGGGLVQPGGSLRLSCAASGFTFSSYGMSWVRQAPGKGLEYVSTINSNGGRTYYANSVKGRFTISRDNSKNTLYLQMGSLRAEDMAVYYCARDQGFAYWGQGTLVTVSS VL: DIQMTQSPSSLSASVGDRVTITCKASQDVGTAVAWYQQKPGKVPKLLIYWASTRHTGVPSRFSGSGSGTDFTLTISSLQPEDVATYYCQQYSSYPWTFGQGTKVEIKR | – | – | – | – | – | – | – | 453000 pM | 0.0279 s⁻¹ | 61500 M⁻¹ s⁻¹ | – |

Reference: patent publication US20170096493A1 (EISAI R AND D MANAGEMENT, published 2017)
